Measurements from US11673947B2, “Target tissue-specific antigen-binding molecule” (Chugai Seiyaku Kabushiki Kaisha, priority 2012, dated 2023).
Substitutions are numbered along the chain they refer to.

Columns and labels:
[1] = Competitive phage ELISA, inhibition of binding to biotin-labeled antigens by ATP; conditions: ATP from an equal amount up to 10000 times that of the antigen
Method: ATNLSA1-4_D12 and PF1 were each diluted with TBS and subjected to ELISA by the following procedure.
A StreptaWell 96 microtiter plate (Roche) was coated at room temperature for one hour with 100 μl of TBS containing biotin-labeled antigens (a mixture of 5′-adenosine-PEG-biotin and ATP-PEG-biotin). After the antigens were removed by washing each well of the plate with TBST, the wells were blocked with 250 μl of 2% skim milk/TBS for one hour or more. 2% skim milk/TBS was removed, and then the prepared, purified phages were added to each well. The plate was allowed to stand at room temperature for one hour to allow binding of the antibody-displaying phages to the antigens in each well. […] For the competition of the immobilized antigen with ATP, the plate was allowed to stand at room temperature for one hour. Then, after TBST wash, an HRP-conjugated anti-M13 antibody (Amersham Pharmacia Biotech) diluted with TBS was added to each well. The plate was incubated for one hour. Following TBST wash, the TMB single solution (ZYMED) was added to each well. The chromogenic reaction in the solution of each well was terminated by adding sulfuric acid. Then, the developed color was assessed by measuring absorbance at 450 nm.

hIL-6R [2] = biological target: T1, hIL-6R (Homo sapiens, UniProt P08887); experiment: IgG ELISA, binding to hIL-6R in the presence or absence of each small molecule, amino acid or amino acid metabolite
T1 sequence (P08887 20-355 limits assumed): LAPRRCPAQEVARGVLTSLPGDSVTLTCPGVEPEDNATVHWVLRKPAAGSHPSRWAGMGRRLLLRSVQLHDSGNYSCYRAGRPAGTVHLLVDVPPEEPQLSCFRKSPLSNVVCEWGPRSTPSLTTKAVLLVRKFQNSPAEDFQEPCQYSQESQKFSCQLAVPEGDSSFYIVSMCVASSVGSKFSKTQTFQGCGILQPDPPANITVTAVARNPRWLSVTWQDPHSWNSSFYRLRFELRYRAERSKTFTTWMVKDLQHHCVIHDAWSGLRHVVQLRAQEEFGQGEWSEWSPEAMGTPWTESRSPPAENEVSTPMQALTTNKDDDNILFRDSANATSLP
Method: Three types of antibodies obtained: 6RNMSC1-2_F02 and 6RNMSC1-3_G02, and GC413 were subjected to ELISA under the nine conditions described in Table 3. Meanwhile, each small molecule was appropriately prepared at the concentrations shown in Table 3 using the buffers indicated in Table 19. The antigen used was biotin-labeled hIL-6R.
First, a StreptaWell 96 microtiter plate (Roche) was coated at room temperature for one hour or more with 100 μl of PBS containing biotin-labeled hIL-6R. After washing with Wash buffer to remove unbound biotin-labeled hIL-6R from the plate, each well was blocked for one hour or more with 250 μl of Blocking Buffer. After Blocking Buffer was removed from each well, the purified IgGs were prepared to 2.5 μg/ml in Sample Buffer containing small molecules at the final concentrations shown in Table 3, and each was aliquoted at 100 μl into the plate. The plate was allowed to stand at room temperature for one hour to allow binding of each IgG to biotin-labeled hIL-6R in each well. After washing with Wash Buffer containing small molecules at the final concentrations shown in Table 3, an HRP-conjugated anti-human IgG antibody (BIOSOURCE) diluted with Sample Buffer containing the same small molecules was added to each well. The plate was incubated for one hour. Following wash with Wash Buffer containing each small molecule, the TMB single solution (ZYMED) was added to each well. The chromogenic reaction in the solution of each well was terminated by adding sulfuric acid. Then, the developed color was assessed by measuring absorbance at 450 nm.
6RNMSC1-2_F02 described in Example 14, which has antigen-binding activity in the presence of kynurenine, and negative control GC413 were subjected to ELISA under the seven conditions described in Table 18. Meanwhile, each small molecule was appropriately prepared at the concentrations shown in Table 18 using the buffers indicated in Table 4. The antigen used was biotin-labeled hIL-6R. ELISA was carried out using the method described in Example 11.

hIL-6R [3] = biological target: T1, hIL-6R; experiment: Phage ELISA, binding to hIL-6R in the presence or absence of SC; conditions: in the presence of SC
Method: Culture supernatants containing phages were collected according to a conventional method (Methods Mol. Biol. (2002) 178, 133-145) from single colonies of E. coli obtained as described in (14-2). Phages purified by the method described in (2-4) were subjected to ELISA by the following procedure. A StreptaWell 96 microtiter plate (Roche) was coated overnight with 100 μl of TBS containing biotin-labeled hIL-6R. After biotin-labeled hIL-6R was removed by washing each well of the plate with TBST, the wells were blocked with 250 μl of 2% skim milk/TBS for one hour or more. 2% skim milk/TBS was removed, and then the prepared, purified phages were added to each well. The plate was allowed to stand at room temperature for one hour to allow binding of antibody-displaying phages to biotin-labeled hIL-6R in each well in the presence or absence of SC. After washing with TBST or SC/TBST, an HRP-conjugated anti-M13 antibody (Amersham Pharmacia Biotech) diluted with TBS or SC/TBS was added to each well. The plate was incubated for one hour. Following wash with TBST or SC/TBST, the TMB single solution (ZYMED) was added to each well. The chromogenic reaction in the solution of each well was terminated by adding sulfuric acid. Then, the developed color was assessed by measuring absorbance at 450 nm.

human IL6 receptor = biological target: T2, human IL6 receptor (Homo sapiens, UniProt P08887); experiment: Phage ELISA, binding to human IL6 receptor in the presence or absence of adenosine and/or ATP; conditions: with or without 10 mM adenosine and ATP
T2 sequence (P08887 20-357 limits assumed): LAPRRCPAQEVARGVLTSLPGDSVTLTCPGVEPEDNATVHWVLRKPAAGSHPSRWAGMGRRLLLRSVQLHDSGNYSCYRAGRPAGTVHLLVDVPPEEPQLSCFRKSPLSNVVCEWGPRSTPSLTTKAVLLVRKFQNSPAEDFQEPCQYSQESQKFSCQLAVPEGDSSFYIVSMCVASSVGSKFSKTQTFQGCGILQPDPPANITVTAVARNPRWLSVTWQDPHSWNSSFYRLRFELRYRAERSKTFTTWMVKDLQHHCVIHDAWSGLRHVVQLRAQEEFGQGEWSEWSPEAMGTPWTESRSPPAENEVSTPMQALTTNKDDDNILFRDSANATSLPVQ
Method: Phage-containing culture supernatants were collected according to a conventional method (Methods Mol. Biol. (2002) 178, 133-145) from single colonies of E. coli obtained by the method described above. The collected culture supernatants were treated by ultrafiltration using NucleoFast 96 (MACHERY-NAGEL). 100 μl of the culture supernatants were added to each well of NucleoFast 96, and it was centrifuged (4500 g for 45 minutes) to remove flow through. After addition of 100 μl of H2O, the NucleoFast 96 was washed by centrifugation (4500 g for 30 minutes). Finally, 100 μl of TBS was added, and the NucleoFast 96 was allowed to stand for five minutes at room temperature. A phage suspension was collected from the supernatant in each well of the NucleoFast 96.
The purified phages, to which TBS or (adenosine+ATP)/TBS was added, were subjected to ELISA by the following procedure. A StreptaWell 96 microtiter plate (Roche) was coated overnight with 100 μl of TBS containing biotin-labeled antigen. […] Then, the developed color was assessed by measuring absorbance at 450 nm. […]
First, a StreptaWell 96 microtiter plate (Roche) was coated at room temperature for one hour or more with 100 μl of TBS containing a biotin-labeled antigen. […] Then, the developed color was assessed by measuring absorbance at 450 nm (FIGS. 25, 26, and 27). […]

B1: PF1: IL-6R-binding clone prepared as a negative control; SEQ ID NOs: 48 and 49 (antibody, V domains shown)
VH: QVQLQESGPGLVKPSETLSLTCAVSGYSISDDHAWSWVRQPPGEGLEWIGYISYSGITNYNPSLKGRVTISRDTSKNQFSLKLSSVTAADTAAYYCARVLARITAMDYWGEGTLVTVSS
VL: DIQMTQSPSSLSASVGDSVTITCQASQDISSYLNWYQQKPGKAPELLIYYGSELHSGVPSRFSGSGSGTDFTFTISSLEAEDAATYYCGQGNRLPYTFGQGTKVEIE
antigen binding (negative control) [1]: not detected regardless of the ATP concentration

B2: 6RNMSC1-3_G02: antibody that binds to hIL-6R in the presence of ATP; SEQ ID NOs: 88 and 89 (antibody, listed as Homo sapiens, V domains shown)
VH: EVQLVQSGGDLVKPGGSLRLSCAASGFTFSNYAMHWVRQAPGKGLEWVAVVSYDGSNKYYADSVKGRFTISRDNSKNTLYLQMNSLRAEDTAVYYCARLVPSSGYPGRFDPWGQGTLVTVSS
VL: NIQMTQSPSSLSASVGDRVTITCRASQSISSSLNWYQQIPGKAPKLLIYAASSLQSGVPSRFSGSGSGTDFTLTISSLQPEDFASYYCQQSYSAWTFGQGTKVEIK
absorbance under condition 1 compared to condition 8 (hIL-6R [2]; condition 1 (1 mM ATP-Na)): the same | absorbance under condition 9 as compared to condition 8 (hIL-6R [2]; condition 9 (in the absence of small molecules) vs condition 8 (complete small molecule cocktail solution)): markedly lower | absorbance under other conditions (hIL-6R [2]; remaining conditions of Table 3): markedly lower | binding activity to hIL-6R in the presence of a small molecule cocktail (phage ELISA) (hIL-6R [3]): have binding activity

B3: 6RRLSA1-6_037: clone with antigen-binding activity to human IL-6 receptor in the absence of ATP and adenosine (antibody, V domains shown)
VH: EVQLVESGGDLVKPGGGLRLSCAASGFTFSTYTMHWVRQAPGKGLEWVSSISSRSGHRHYADSVKGRFTISRDNAKNSLYLQMNSLRAEDTAVYYCARYGKKGNRNWVFDYWGQGTLVTVSS
VL: QSALTQPPSASGSPGQTVTISCTGTSTDVGGYNYVSWYQQHPGKAPKLMIYSTSKRPSGVPDRFSGSKSGNTASLTVSGLQAEDEADYFCSTTTYAKNPVFGGGTKLTVL
antigen-binding activity to human IL-6 receptor in the absence of ATP and adenosine (human IL6 receptor): had an antigen-binding activity

B4: 6RRLSA1-6_045: clone with antigen-binding activity to human IL-6 receptor in the absence of ATP and adenosine (antibody, V domains shown)
VH: B3 VH with T31G, G56N, H59S, Y99F, K102R, G103F, N104D
VL: B3 VL with G31T, S52K, T92S, T93R, T94R, A96R, K97R, N98S, P99L, V100S
antigen-binding activity to human IL-6 receptor in the absence of ATP and adenosine (human IL6 receptor): had an antigen-binding activity
